Values of other authors, collected in paper PMC7443330.

Biological target: Spike RBD RBD (SARS-CoV-2) (UniProt P0DTC2)

Spike binding peptide 1 (SBP1)
Kd: 47 nM
